Test results reported in patent publication US20020137113A1 (Genentech, published 2002).

Target: trkB.IgG (untagged trk.IgG fusion of the trkB extracellular domain and IgG-1 Fc) (human, UniProt Q16620 32-430)
Assay: competitive displacement of iodinated NT5 from trkB.IgG in 293 cell supernatant

trkB.IgG (untagged trk.IgG fusion of the trkB extracellular domain and IgG-1 Fc), sequence (Q16620 32-822): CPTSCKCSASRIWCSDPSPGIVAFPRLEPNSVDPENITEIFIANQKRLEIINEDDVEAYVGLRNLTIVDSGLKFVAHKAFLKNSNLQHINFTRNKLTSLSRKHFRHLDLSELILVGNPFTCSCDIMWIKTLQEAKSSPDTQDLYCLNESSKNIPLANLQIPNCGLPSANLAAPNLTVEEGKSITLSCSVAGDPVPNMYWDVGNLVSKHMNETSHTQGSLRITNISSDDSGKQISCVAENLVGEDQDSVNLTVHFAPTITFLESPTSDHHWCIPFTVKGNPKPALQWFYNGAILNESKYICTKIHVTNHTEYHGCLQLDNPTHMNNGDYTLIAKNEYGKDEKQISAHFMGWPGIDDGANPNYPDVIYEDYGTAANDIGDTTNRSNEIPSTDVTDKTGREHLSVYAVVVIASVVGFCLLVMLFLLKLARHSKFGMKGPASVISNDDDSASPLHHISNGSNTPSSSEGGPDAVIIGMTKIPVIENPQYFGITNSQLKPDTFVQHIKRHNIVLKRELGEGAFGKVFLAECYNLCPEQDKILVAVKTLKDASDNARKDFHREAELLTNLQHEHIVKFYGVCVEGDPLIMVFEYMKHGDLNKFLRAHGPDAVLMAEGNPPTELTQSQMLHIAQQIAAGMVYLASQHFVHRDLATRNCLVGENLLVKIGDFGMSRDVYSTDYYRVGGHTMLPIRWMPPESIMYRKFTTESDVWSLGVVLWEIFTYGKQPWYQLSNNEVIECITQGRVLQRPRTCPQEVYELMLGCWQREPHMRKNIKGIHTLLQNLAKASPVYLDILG

IC50: 0.0311 nM
B1: neurotrophin 5 (NT5) (ligand, UniProt P34130 81-210, looked up)
chain: GVSETAPASRRGELAVCDAVSGWVTDRRTAVDLRGREVEVLGEVPAAGGSPLRQYFFETRCKADNAEEGGPGAGGGGCRGVDRRHWVSECKAKQSYVRALTADAQGRVGWRWIRIDTACVCTLLSRTGRA
notes: It is printed as NTS in several places, which I read as a misprint of NT5; The tracer in the displacement assay was the iodinated form; also called NTS
